{"source": "patent US20120065134A1", "about": "(PHYLOGICA, published 2012)", "binders": {"B1": {"name": "Cys_M1_6S (peptide)", "peptide": "CHPFSIKNVFSIWNFFSVY", "modifications": "a cysteine-containing linker (8-amino-3,6-dioxaoctanoyl type, FIG. 1b) may stand between Cys and the peptide; not stated for this molecule", "notes": "also called cysteine-containing derivative of M1-6S"}, "B2": {"name": "CD40 ligand (CD40L or CD154) (ligand)", "chain": "MQKGDQNPQIAAHVISEASSKTTSVLQWAEKGYYTMSNNLVTLENGKQLTVKRQGLYYIYAQVTFCSNREASSQAPFIASLCLKSPGRFERILLRAANTHSSAKPCGQQSIHLGGVFELQPGASVFVNVTDPSQVSHGTGFTSFGLLKL", "modifications": "biotinylated ('biotinylated phospho-CD40L') in the proximity assay as described in paragraph 342", "notes": "Species never stated; also called soluble CD40L; CD40L target protein"}, "B3": {"name": "CD40L M8_747 (peptide)", "peptide": "LAEHAVWSLKCFPDWEWYNINIFGTDDPNHFWVECDGHGKILFPGYPEGYYENHFLHSFELED"}}, "key": {"[1]": {"molecular_target": "B2", "assay": "cell-based or functional assay"}, "[2]": {"molecular_target": "B2", "assay": "Alphascreen proximity assay, inhibition of CD40L-CD40 interaction"}, "[3]": {"molecular_target": "B2", "assay": "Alphascreen proximity assay, 0.75nM CD40L; peptide titrated; blocked ligand is CD40 (CD40-Fc on acceptor beads)"}, "[4]": {"molecular_target": "B2", "assay": "Alphascreen proximity assay; peptide titrated, axis Phylomer (M); blocked ligand is CD40 (CD40-Fc on acceptor beads)"}, "[5]": {"molecular_target": "B2", "assay": "cell-based or functional assay", "remark": "listed apart in the source"}, "CD40 on primary B-cells": {"molecular_target": "CD40 on primary B-cells", "assay": "cell-based or functional assay"}, "CD40L M8_748": {"molecular_target": "T1, CD40L M8_748", "T1 construct": "Base peptide, natural open reading frame", "assay": "BLI, Octet Red (ForteBio), label-free"}, "[6]": {"molecular_target": "B2", "assay": "BLI, Octet Red (ForteBio), label-free"}, "[7]": {"molecular_target": "B2", "assay": "Alphascreen proximity assay, inhibition of CD40L/CD40-Fc interaction, unmodified peptide"}}, "note": "Where no end group is shown, it is not given here. PEG = not defined here", "data": [{"binder": "B1", "values": [{"measurement": "EC50, inhibition of CD40L-induced CD86 expression on primary B-cells", "setting": "[1]", "value": 306, "unit": "nM"}, {"measurement": "EC50", "setting": "[2]", "value": 0.265, "unit": "nM"}, {"measurement": "IC50 (read off the curve)", "setting": "[3]", "value": "~300", "unit": "nM"}, {"measurement": "IC50 (read off the curve)", "setting": "[4]", "value": "~300", "unit": "nM"}]}, {"binder": "LCEMIAIYVFLWKKVFL", "note": "[CD40L M7_217]", "values": [{"measurement": "EC50, inhibition of CD40L-induced CD86 expression on primary B-cells (FACS), unmodified peptide", "setting": "[5]", "value": 2500, "unit": "nM"}]}, {"binder": "{PEG}-PPRYNLFFLFRFYSSFRRDYLYF (reading uncertain; also: PEG size and spacer not given here)", "note": "[PEGylated CD40L M1_9s]", "values": [{"measurement": "EC50, inhibition of CD40L-induced CD86 expression on primary B-cells (FACS), PEGylated peptide", "setting": "[5]", "value": 180, "unit": "nM"}]}, {"binder": "{PEG}-DAAGREFFQIAGLFSFRHHWWQA (reading uncertain; also: PEG size and spacer not given here)", "note": "[PEGylated CD40L M1_30s]", "values": [{"measurement": "EC50, inhibition of CD40L-induced CD86 expression on primary B-cells (FACS), PEGylated peptide", "setting": "[5]", "value": "> 2000", "unit": "nM"}]}, {"binder": "B2", "values": [{"measurement": "EC50, induction of CD86 expression on primary B-cells by CD40L", "setting": "CD40 on primary B-cells", "value": "~9", "unit": "nM"}, {"measurement": "Kd", "setting": "CD40L M8_748", "value": 5, "unit": "nM"}]}, {"binder": "{PEG}-HSFVLFGVNVPFNIIDFQMRVKS (reading uncertain; also: PEG size and spacer not given here)", "note": "[PEGylated CD40L M1_42s]", "values": [{"measurement": "EC50, inhibition of CD40L-induced CD86 expression on primary B-cells (FACS), PEGylated peptide", "setting": "[5]", "value": 5000, "unit": "nM"}]}, {"binder": "{PEG}-PRWVRNRFYSLFVPSGVQRGGIHLWFSNWVR (reading uncertain; also: PEG size and spacer not given here)", "note": "[PEGylated CD40L M1_50s]", "values": [{"measurement": "EC50, inhibition of CD40L-induced CD86 expression on primary B-cells (FACS), PEGylated peptide", "setting": "[5]", "value": 30, "unit": "nM"}]}, {"binder": "{PEG}-HPFSIKNVFSIWNFFSVY (reading uncertain; also: PEG size and spacer not given here)", "note": "[PEGylated CD40L M1_6s]", "values": [{"measurement": "EC50, inhibition of CD40L-induced CD86 expression on primary B-cells (FACS), PEGylated peptide", "setting": "[5]", "value": 1.5, "unit": "nM"}]}, {"binder": "{PEG}-LPFVPYRSHVLKYGWFFPVQWSIFAVLPFQYLHRSR (reading uncertain; also: PEG size and spacer not given here)", "note": "[PEGylated CD40L M1_18s]", "values": [{"measurement": "EC50, inhibition of CD40L-induced CD86 expression on primary B-cells (FACS), PEGylated peptide", "setting": "[5]", "value": 90, "unit": "nM"}]}, {"binder": "B3", "values": [{"measurement": "Kd", "setting": "[6]", "value": 8, "unit": "nM"}, {"measurement": "EC50", "setting": "[7]", "value": 197, "unit": "nM"}]}]}
